In US20090123489A1 (IMMATICS BIOTECHNOLOGIES, published 2009):

molecular target: T1, HLA-A*0205 (human); assay: peptide eluted from HLA precipitated from glioblastoma tissue, identified by ESI-LCMS
T1 construct: whole, on cells; Native HLA precipitated from tumor tissue

Binding result, binds:
ALTTLMHQL (9-mer from PTPRZ1) [PTP-001]

molecular target: HLA-A*0201 (recombinant heavy chain with beta-2 microglobulin) (human); assay: ELISA-based HLA refolding assay
Procedure: Stable HLA/peptide complexes consist of three molecules: HLA heavy chain, beta-2 microglobulin (b2m) and the peptidic ligand. […] The availability of these molecules is used in an ELISA-based assay to measure the affinity of interaction between peptide and HLA class I molecule (Sylvester-Hvid et al., 2002).
The amount of de novo-folded HLA/peptide complexes was determined by a quantitative ELISA. Dissociation constants (KD values) were calculated using a standard curve recorded from dilutions of a calibrant HLA/peptide complex.

Binding result, binds:
ALTTLMHQL (9-mer from PTPRZ1) [PTP-001]
FLYKVILSL [PTP-002]
AIIDGVESV [PTP-003]
FLLPDTDGL [PTP-004]
KVFAGIPTV [PTP-005]
SLWAGVVVL [CHI-001]
